According to PMC3378865 (Nucleic Acids Research, 2012):

Biological target: the molecule itself
Test: cross-linking

B1: OxyR (PA5344) of Pseudomonas aeruginosa PAO1 with a carboxyl-terminal His-tag (natural protein, UniProt Q9HTL4 1-310, looked up)
chain: MTLTELRYIVTLAQEQHFGRAAERCHVSQPTLSVGVKKLEDELGVLIFERSKSAVRLTPVGEGIVAQAQKVLEQAQGIRELAQAGKNQLAAPLKVGAIYTIGPYLFPHLIPQLHRVAPQMPLYIEENFTHILRDKLRTGELDAIIIALPFQEADVLTKPLFDEPFYVLMPADHPWTAKASIDSELLNDKSLLLLGEGHCFRDQVLEACPTVRKGDENKHTTVESSSLETIRHMVASGLGVSVLPFSAVDSHHYAPGVIEVRPFSAPVPFRTVAIAWRASFPRPRAIEVLADSIRLCSVARPQTQEQPQIA
**Q.** How did the “stoichiometry N” value turn out when B1 was run?
**A.** 2
